The values that follow come from publication PMC2172333 (The Journal of Cell Biology, 2004).

What all share (test): pull-down
For one assay, the target named is T1, MBP-Bfa1 (yeast, UniProt P47113 1-574).
T1 sequence: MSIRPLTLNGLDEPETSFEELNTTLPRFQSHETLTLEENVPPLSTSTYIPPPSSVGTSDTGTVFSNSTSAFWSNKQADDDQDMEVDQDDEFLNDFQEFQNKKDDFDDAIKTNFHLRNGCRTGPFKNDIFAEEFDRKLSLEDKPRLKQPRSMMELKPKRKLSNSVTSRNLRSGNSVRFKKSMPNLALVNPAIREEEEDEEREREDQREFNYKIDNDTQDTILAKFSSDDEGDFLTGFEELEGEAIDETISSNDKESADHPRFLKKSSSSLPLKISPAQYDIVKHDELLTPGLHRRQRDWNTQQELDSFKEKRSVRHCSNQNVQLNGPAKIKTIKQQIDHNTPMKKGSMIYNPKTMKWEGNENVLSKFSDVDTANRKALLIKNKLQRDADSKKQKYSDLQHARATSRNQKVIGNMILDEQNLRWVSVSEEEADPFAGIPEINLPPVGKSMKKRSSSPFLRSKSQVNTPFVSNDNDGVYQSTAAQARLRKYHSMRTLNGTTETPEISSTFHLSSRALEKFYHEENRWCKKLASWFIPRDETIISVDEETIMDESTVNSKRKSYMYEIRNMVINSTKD

Assay [1] deals with T2, NH2-terminal domain of Net1 (Net1 1-600) (yeast, UniProt P47035 1-600).
T2 sequence: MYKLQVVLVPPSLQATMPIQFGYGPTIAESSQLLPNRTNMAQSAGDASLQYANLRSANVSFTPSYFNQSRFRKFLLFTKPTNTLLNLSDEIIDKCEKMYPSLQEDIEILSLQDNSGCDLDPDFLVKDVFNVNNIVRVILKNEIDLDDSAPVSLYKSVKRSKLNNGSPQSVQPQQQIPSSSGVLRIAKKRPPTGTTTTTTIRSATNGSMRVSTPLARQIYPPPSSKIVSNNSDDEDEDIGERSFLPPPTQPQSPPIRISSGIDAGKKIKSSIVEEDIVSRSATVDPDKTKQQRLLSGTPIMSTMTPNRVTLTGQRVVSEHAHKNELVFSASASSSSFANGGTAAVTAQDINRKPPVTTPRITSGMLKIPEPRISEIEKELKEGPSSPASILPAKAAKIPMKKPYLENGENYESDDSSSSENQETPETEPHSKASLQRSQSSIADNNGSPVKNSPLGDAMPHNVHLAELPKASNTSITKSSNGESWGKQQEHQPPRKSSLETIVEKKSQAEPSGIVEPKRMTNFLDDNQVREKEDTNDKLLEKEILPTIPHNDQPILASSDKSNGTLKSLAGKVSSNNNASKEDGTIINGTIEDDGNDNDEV

The target of a further assay is T3, MBP-Bub2 (yeast, UniProt P26448 1-306).
T3 sequence: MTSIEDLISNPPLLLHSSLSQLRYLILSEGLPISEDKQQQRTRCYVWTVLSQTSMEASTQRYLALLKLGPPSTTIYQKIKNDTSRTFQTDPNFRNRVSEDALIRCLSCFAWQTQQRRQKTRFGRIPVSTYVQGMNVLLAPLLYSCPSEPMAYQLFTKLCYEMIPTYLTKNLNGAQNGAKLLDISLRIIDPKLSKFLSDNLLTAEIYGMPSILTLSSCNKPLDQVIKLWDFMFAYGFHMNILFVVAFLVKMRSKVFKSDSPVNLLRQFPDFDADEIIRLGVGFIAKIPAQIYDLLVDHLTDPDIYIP

B1: GST-Bub2 (natural protein)
chain: MTSIEDLISNPPLLLHSSLSQLRYLILSEGLPISEDKQQQRTRCYVWTVLSQTSMEASTQRYLALLKLGPPSTTIYQKIKNDTSRTFQTDPNFRNRVSEDALIRCLSCFAWQTQQRRQKTRFGRIPVSTYVQGMNVLLAPLLYSCPSEPMAYQLFTKLCYEMIPTYLTKNLNGAQNGAKLLDISLRIIDPKLSKFLSDNLLTAEIYGMPSILTLSSCNKPLDQVIKLWDFMFAYGFHMNILFVVAFLVKMRSKVFKSDSPVNLLRQFPDFDADEIIRLGVGFIAKIPAQIYDLLVDHLTDPDIYIP
As to B1, in the assay with MBP-Bfa1, the binding result is given as “binds”.

B2: MBP-Cdc14 (natural protein)
chain: MRRSVYLDNTIEFLRGRVYLGAYDYTPEDTDELVFFTVEDAIFYNSFHLDFGPMNIGHLYRFAVIFHEILNDPENANKAVVFYSSASTRQRANAACMLCCYMILVQAWTPHQVLQPLAQVDPPFMPFRDAGYSNADFEITIQDVVYGVWRAKEKGLIDLHSFNLESYEKYEHVEFGDFNVLTPDFIAFASPQEDHPKGYLATKSSHLNQPFKSVLNFFANNNVQLVVRLNSHLYNKKHFEDIGIQHLDLIFEDGTCPDLSIVKNFVGAAETIIKRGGKIAVHCKAGLGRTGCLIGAHLIYTYGFTANECIGFLRFIRPGMVVGPQQHWLYLHQNDFREWKYTTRISLKPSEAIGGLYPLISLEEYRLQKKKLKDDKRVAQNNIEGELRDLTMTPPSNGHGALSARNSSQPSTANNGSNSFKSSAVPQTSPGQPRKGQNGSNTIEDINNNRNPTSHANRKVVIESNNSDDESMQDTNGTSNHYPKVSRKKNDISSASSSRMEDNEPSATNINNAADDTILRQLLPKNRRVTSGRRTTSAAGGIRKISGSIKK
In the case of B2, the binding result in assay [1] is reported as “binds”.

B3: His6-Tem1 (natural protein)
chain: MATPSTGANNSIPAVRNQVEVQVGLVGDAQVGKTSLMVKYVQNIYDKEYTQTLGVNFLKRKVSIRSTDIIFSIMDLGGQREFINMLPIATVGSSVIIFLFDLTRPETLSSIKEWYRQAYGLNDSAIPILVGTKYDLLIDLDPEYQEQISRTSMKYAQVMNAPLIFCSTAKSINIQKIFKIALAKIFNLTLTIPEINEIGDPLLIYKHLGGQQHRHHNKSQDRKSHNIRKPSSSPSSKAPSPGVNT
As for B3, the binding result with MBP-Bub2 and with MBP-Bfa1 was “binds” in each case.
